Experimental data from patent publication US20210188948A1.

Assays:
Experiment in all cases: cell-based or functional assay
[1] = biological target: Zika virus (ZIKV) reporter virus particles (RVPs) (Zika virus)
[2] = biological target: DENV4 reporter virus particles (RVPs) (Dengue virus serotype 4)
[3] = biological target: DENV1 reporter virus particles (RVPs) (Dengue virus serotype 1)
[4] = biological target: West Nile virus (WNV) reporter virus particles (RVPs) (West Nile virus)
[5] = biological target: DENV3 reporter virus particles (RVPs) (Dengue virus serotype 3)

monoclonal antibody E16
percent neutralization [1]: -38% | percent neutralization [2]: -177% | percent neutralization [3]: -303% | percent neutralization [4]: 99% | percent neutralization [5]: -415%

WNV-specific mAb CR4354 (antibody)
IC50 (neutralization) [4]: 0.007 µg/mL

monoclonal antibody C10
IC50 (neutralization) [1]: 0.038 µg/mL | percent neutralization [1]: 99% | IC50 (neutralization) [2]: 0.038 µg/mL | percent neutralization [2]: 98% | IC50 (neutralization) [3]: 0.352 µg/mL | percent neutralization [3]: 52% | percent neutralization [4]: -195% | IC50 (neutralization) [5]: 0.753 µg/mL | percent neutralization [5]: -95%
